The chains are these.
B1: PTS system glucose-specific EIICB component (Escherichia coli (strain K12)), P69786 (parent)
chain: MFKNAFANLQKVGKSLMLPVSVLPIAGILLGVGSANFSWLPAVVSHVMAEAGGSVFANMPLIFAIGVALGFTNNDGVSALAAVVAYGIMVKTMAVVAPLVLHLPAEEIASKHLADTGVLGGIISGAIAAYMFNRFYRIKLPEYLGFFAGKRFVPIISGLAAIFTGVVLSFIWPPIGSAIQTFSQWAAYQNPVVAFGIYGFIERCLVPFGLHHIWNVPFQMQIGEYTNAAGQVFHGDIPRYMAGDPTAGKLSGGFLFKMYGLPAAAIAIWHSAKPENRAKVGGIMISAALTSFLTGITEPIEFSFMFVAPILYIIHAILAGLAFPICILLGMRDGTSFSHGLIDFIVLSGNSSKLWLFPIVGIGYAIVYYTIFRVLIKALDLKTPGREDATEDAKATGTSEMAPALVAAFGGKENITNLDACITRLRVSVADVSKVDQAGLKKLGAAGVVVAGSGVQAIFGTKSDNLKTEMDEYIRNH
partner: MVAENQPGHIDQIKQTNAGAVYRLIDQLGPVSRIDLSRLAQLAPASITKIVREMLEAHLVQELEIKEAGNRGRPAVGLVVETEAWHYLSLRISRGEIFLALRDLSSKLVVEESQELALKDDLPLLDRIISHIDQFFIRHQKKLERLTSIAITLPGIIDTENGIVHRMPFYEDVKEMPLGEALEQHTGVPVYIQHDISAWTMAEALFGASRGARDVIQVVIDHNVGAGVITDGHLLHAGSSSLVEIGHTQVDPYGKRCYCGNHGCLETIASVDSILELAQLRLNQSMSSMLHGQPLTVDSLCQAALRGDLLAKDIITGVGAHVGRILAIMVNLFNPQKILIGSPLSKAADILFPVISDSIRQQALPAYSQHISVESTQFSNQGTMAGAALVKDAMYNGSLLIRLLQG

In this assay the parent is B1. As to conditions: with mlc_ecoli mlc.
For A451F, the “effect of a mutation on the interaction” value is “decreasing interaction”.

Turning to V449Q, the “effect of a mutation on the interaction” value is reported as “disrupting interaction”.

Consider Q456A, for which the “effect of a mutation on the interaction” value is “disrupting interaction”.

The values above are taken from IntAct's records for PubMed 18319344.
